In US20220332795A1:
Residue numbers refer to the chain shown, from its start. Values belong to the binder of their own block, whether it stands above or below them.

Biological target: human serum albumin (human) (UniProt P02768)
Experiment: primary solution ELISA screen

Sequence of human serum albumin (human) (P02768 25-609 limits assumed): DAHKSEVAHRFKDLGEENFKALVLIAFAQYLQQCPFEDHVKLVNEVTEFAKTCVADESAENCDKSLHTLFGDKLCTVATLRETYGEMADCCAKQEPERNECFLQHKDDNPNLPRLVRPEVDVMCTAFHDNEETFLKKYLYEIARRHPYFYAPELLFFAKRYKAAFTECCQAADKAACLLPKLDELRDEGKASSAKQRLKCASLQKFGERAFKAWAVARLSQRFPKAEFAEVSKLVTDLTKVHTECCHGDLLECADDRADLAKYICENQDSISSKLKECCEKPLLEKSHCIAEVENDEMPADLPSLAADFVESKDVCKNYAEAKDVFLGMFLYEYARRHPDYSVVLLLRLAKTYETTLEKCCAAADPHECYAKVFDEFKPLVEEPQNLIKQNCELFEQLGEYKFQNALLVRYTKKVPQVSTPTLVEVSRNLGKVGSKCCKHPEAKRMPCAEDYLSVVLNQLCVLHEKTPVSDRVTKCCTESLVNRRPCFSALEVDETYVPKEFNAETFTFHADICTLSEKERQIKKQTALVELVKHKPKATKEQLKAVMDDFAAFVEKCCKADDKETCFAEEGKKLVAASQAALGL

B1: SEQ ID NO 80 (designed binder, not shown: small tags and cut ends)
chain: MLPAPKNLVVSRVTEDSARLSWTAPDAAFDSFWIDYEEEGVIGEAIYLHVPGSERSYDLTGLKPGTEYVVKIHGVKGGHPSHPLVAVFTT
RLU: 33600 RLU

B2: SEQ ID NO 6 (designed binder, not shown: small tags and cut ends)
chain: MLPAPKNLVVSRVTEDSARLSWTAPDAAFDSFPIIYMETFSRGEAIVLTVPGSERSYDLTGLKPGTEYRVPIGGVKGGSSSCPLSAIFTT
RLU: 7300 RLU

B3: SEQ ID NO 10 (designed binder, not shown: small tags and cut ends)
chain: B2 chain with P33K, I35A, M37I, F40A, S41T, R69V, G73P, S79N, S80T, C82S
RLU: 29300 RLU

B5: SEQ ID NO 63 (designed binder, not shown: small tags and cut ends)
chain: MLPAPKNLVVSRVTEDSARLSWTAPDAAFDSFCISYYERMGRGEAIVLTVPGSERSYDLTGLKPGTEYMVYIFGVKGGLNSLPLSAIFTT
RLU: 5700 RLU

B8: SEQ ID NO 66 (designed binder, not shown: small tags and cut ends)
chain: MLPAPKNLVVSRVTEDSARLSWTAPDAAFDSFTIDYDEPRSPGEAIVLTVPGSERSYDLTGLKPGTEYRVFIWGIKGGDTSFPLSAIFTT
RLU: 8100 RLU

B10: SEQ ID NO 76 (designed binder, not shown: small tags and cut ends)
chain: MLPAPKNLVVSRVTEDSARLSWTAPDAAFDSFTIEYYENIGIGEAIVLTVPGSERSYDLTGLKPGTEYSVPIVGVKGGPYSHPLSAIFTT
RLU: 16300 RLU

B11: SEQ ID NO 67 (designed binder, not shown: small tags and cut ends)
chain: MLPAPKNLVVSRVTEDSARLSWTAPDAAFDSFTILYAEQAQFGEAIVLTVPGSERSYDLTGLKPGTEYPITGVKGGTRSGPLSAISTT
RLU: 14200 RLU

B12: SEQ ID NO 72 (designed binder, not shown: small tags and cut ends)
chain: MLPAPKNLVVSRVTEDSARLSWTAPDAAFDSFTIGYREWYWYGEAIVLTVPGSERSYDLTGLKPGTEYNVPISGVKGGLDSFPLSAIFTT
RLU: 8950 RLU

B13: SEQ ID NO 56 (designed binder, not shown: small tags and cut ends)
chain: MLPAPKNLVVSRVTEDSARLSWTAPDAAFDSFSIGYVELVLLGEAIVLTVPGSERSYDLTGLKPGTEYDVLIPGVKGGSLSRPLSAIFTT
RLU: 19400 RLU

B15: SEQ ID NO 71 (designed binder, not shown: small tags and cut ends)
chain: B13 chain with S33P, G35S, V37L, V40S, L42Y, D69P, L71G, P73A, S79V, L80V
RLU: 27500 RLU

B16: SEQ ID NO 59 (designed binder, not shown: small tags and cut ends)
chain: MLPAPKNLVVSRVTEDSARLSWTAPDAAFDSFVYNEVHWIGEAIVLTVPGSERSYDLTGLKPGTEYFVGIYGVKGGHWSKPLSAIFTT
RLU: 16400 RLU

B17: SEQ ID NO 79 (designed binder, not shown: small tags and cut ends)
chain: B10 chain with T33V, Y37T, N39R, I40F, G41W, I42S, V73D, P79Q, Y80C, H82T
RLU: 6000 RLU

B18: SEQ ID NO 38 (designed binder, not shown: small tags and cut ends)
chain: MLPAPKNLVVSRVTEDSARLSWTAPDAAFDSFPILYLEHTVRSEAIVLTVPGSERSYDLTDLKPGTEYCVPIDGVKGGLRSRPLSAIFTT
RLU: 8150 RLU

B25: SEQ ID NO 53 (designed binder, not shown: small tags and cut ends)
chain: MLPAPENLVVSEVTEDSARLSWQGVARAFDSFLITYREQIFAGEVIVLTVPGSERSYDLTGLKPGTEYPVWIQGVKGGSPSAPLSAESTT
RLU: 32000 RLU

B28: SEQ ID NO 41 (designed binder, not shown: small tags and cut ends)
chain: B25 chain with E6K, E12R, S79H, P80L, A82D, E87I, S88V
RLU: 115000 RLU

B31: SEQ ID NO 43 (designed binder, not shown: small tags and cut ends)
chain: MLPAPKNLVVSRVTEDSARLSWTAPDAAFDSFMIVYYEYTRFGEAIVLTVPGSERSYDLTGLKPGTEYTVPIDGVKGGGRSSPLSAIFTT
RLU: 21500 RLU

B32: SEQ ID NO 47 (designed binder, not shown: small tags and cut ends)
chain: B31 chain with M33G, Y37L, Y39M, T40M, R41V, F42T, T69D, D73L, G79T, S82V
RLU: 20400 RLU

B34: SEQ ID NO 42 (designed binder, not shown: small tags and cut ends)
chain: MLPAPKNLVVSRVTEDSARLSWTAPDAAFDSFLIPYAETSPSGEAIVLTVPGSERSYDLTGLKPGTEYSVLIHGVKGGDYSEPLSAIFTT
RLU: 1000 RLU

B35: SEQ ID NO 64 (designed binder, not shown: small tags and cut ends)
chain: B34 chain with L33Y, P35V, T39P, S40I, S42N, D79R, Y80N, E82D
RLU: 6000 RLU

B36: SEQ ID NO 65 (designed binder, not shown: small tags and cut ends)
chain: B34 chain with E15K, L33P, P35A, T39P, S40R, S42D, D79L, Y80L, E82S
RLU: 16000 RLU

B37: SEQ ID NO 57 (designed binder, not shown: small tags and cut ends)
chain: B34 chain with L33A, T39L, P41R, S42N, S69T, D79C, Y80L, E82D
RLU: 38800 RLU

B38: SEQ ID NO 44 (designed binder, not shown: small tags and cut ends)
chain: B34 chain with L33F, T39P, S42T, D79H, Y80L, E82D, F88V
RLU: 56600 RLU

B39: SEQ ID NO 77 (designed binder, not shown: small tags and cut ends)
chain: B34 chain with L33P, P35A, T39P, S40R, S42D, D79L, Y80L, E82S
RLU: 10400 RLU

B40: SEQ ID NO 68 (designed binder, not shown: small tags and cut ends)
chain: B34 chain with L33I, T39V, S40R, S42D, D79H, Y80L, E82D, F88S
RLU: 38400 RLU

B41: SEQ ID NO 46 (designed binder, not shown: small tags and cut ends)
chain: B34 chain with L33I, T39V, S40R, S42D, D79K, Y80L, E82L
RLU: 8150 RLU

B42: SEQ ID NO 78 (designed binder, not shown: small tags and cut ends)
chain: MLPAPKNLVVSRVTEDSARLSWTAPDAAFDSFGIGYYEHKRFGEAIQLSVPGSERSYDLTGLKPGTEYEVDIEGVKGGVLSWPLFAEFTT
RLU: 9350 RLU

Now from value to binder:

RLU: 15800 RLU
B4: SEQ ID NO 1 (designed binder, not shown: small tags and cut ends)
chain: MLPAPKNLVVSRVTEDSARLSWTAPDAAFDSFPITYIEAVVLGEAIVLTVPGSERSYDLTGLKPGTEYPVGISGVKGGHNSMPLSAIFTT

RLU: 13600 RLU
B6: SEQ ID NO 40 (designed binder, not shown: small tags and cut ends)
chain: B8 chain with D37W, P39N, S41C, R69C, F71W, W73S, I75V, D79Y, T80S, F82W

RLU: 8100 RLU
B7: SEQ ID NO 62 (designed binder, not shown: small tags and cut ends)
chain: B2 chain with P33K, I35R, M37T, F40R, R42I, R69C, S79D, C82W, F88S

RLU: 11700 RLU
B9: SEQ ID NO 54 (designed binder, not shown: small tags and cut ends)
chain: B10 chain with T33A, E35A, Y37G, N39H, G41V, S69M, V73A, Y80I, H82L

RLU: 14600 RLU
B14: SEQ ID NO 74 (designed binder, not shown: small tags and cut ends)
chain: B13 chain with G35T, V37L, L39W, V40W, L41N, D69M, L71T, S79M, L80S, R82Y

RLU: 51100 RLU
B19: SEQ ID NO 39 (designed binder, not shown: small tags and cut ends)
chain: MLPAPKNLVVSRVTEDSARLSWTAPDAAFDSFPIPYTEPPDPGEAIVLTVPGSERSYDLTGLKPGTEYLVTILGVKGGSMSVPLSAIFTT

RLU: 13600 RLU
B20: SEQ ID NO 61 (designed binder, not shown: small tags and cut ends)
chain: MLPAPKNLVVSRVTEDSARLSWTAPDAAFDSFQIVYSELWIKGEAIVLTVPGSERSYDLTGLKPGTEYQVPIPGVKGGRNSFPLSAIFTT

RLU: 3700 RLU
B21: SEQ ID NO 75 (designed binder, not shown: small tags and cut ends)
chain: MLPAPKNLVVSRVTEDSARLSWTAPDAAFDSFTISYGEEALIGEAIYLRVPGSERSYDLTGLKPGTEYYVHIEGVKGGSWSQPLAAAFTT

RLU: 174000 RLU
B22: SEQ ID NO 4 (designed binder, not shown: small tags and cut ends)
chain: B25 chain with E6K, E38D

RLU: 45000 RLU
B23: SEQ ID NO 5 (designed binder, not shown: small tags and cut ends)
chain: B25 chain with E6K, P69W, W71Y, Q73W, S79K, A82F, S85R, E87G, S88F

RLU: 20200 RLU
B24: SEQ ID NO 73 (designed binder, not shown: small tags and cut ends)
chain: B25 chain with E6K

RLU: 94800 RLU
B26: SEQ ID NO 70 (designed binder, not shown: small tags and cut ends)
chain: B25 chain with E6K, E12R, S79D, P80L, A82N, E87I, S88F

RLU: 26100 RLU
B27: SEQ ID NO 7 (designed binder, not shown: small tags and cut ends)
chain: B25 chain with E6K, E12D, S88F

RLU: 16000 RLU
B29: SEQ ID NO 50 (designed binder, not shown: small tags and cut ends)
chain: MSLPAPKNLVVSRVTEDSARLSWTAPDAAFDSFTIHYREFQLSGEAIVLTVPGSERSYDLTGLKPGTEYDVPIEGVKGGPGSRPLSAIFTT

RLU: 28600 RLU
B30: SEQ ID NO 37 (designed binder, not shown: small tags and cut ends)
chain: MLPAPKNLVVSRVTEDSARLSWTTPDAAFDSFPIYYWEVTITGEAIYLSVPGSERSYDLTGLKPGTEYPVDIPGVKGGAASPPLSAIFTT

RLU: 115000 RLU
B33: SEQ ID NO 48 (designed binder, not shown: small tags and cut ends)
chain: MLPAPKNLVVSRVTEDSARLSWTAPDAAFDSFLIYYEEGYLEYYYSGEAIVLTVPGSERSYDLTGLKPGTEYYVGIVGVKGGGLSGPLSAISTT
